From IntAct's records for PubMed 21098279 come the findings set out here.

The chains are these.
B1: "Secreted effector protein EspF(U)" (Escherichia coli O157:H7), P0DJ88 (parent)
chain: MINNVSSLFPTVNRNITAVYKKSSFSVSPQKITLNPVKISSPFSPSSSSISATTLFRAPNAHSASFHRQSTAESSLHQQLPNVRQRLIQHLAEHGIKPARSMAEHIPPAPNWPAPPPPVQNEQSRPLPDVAQRLVQHLAEHGIQPARNMAEHIPPAPNWPAPPLPVQNEQSRPLPDVAQRLVQHLAEHGIQPARSMAEHIPPAPNWPAPPPPVQNEQSRPLPDVAQRLMQHLAEHGIQPARNMAEHIPPAPNWPAPTPPVQNEQSRPLPDVAQRLMQHLAEHGIQPARNMAEHIPPAPNWPAPTPPVQNEQSRPLPDVAQRLMQHLAEHGINTSKRS
partner: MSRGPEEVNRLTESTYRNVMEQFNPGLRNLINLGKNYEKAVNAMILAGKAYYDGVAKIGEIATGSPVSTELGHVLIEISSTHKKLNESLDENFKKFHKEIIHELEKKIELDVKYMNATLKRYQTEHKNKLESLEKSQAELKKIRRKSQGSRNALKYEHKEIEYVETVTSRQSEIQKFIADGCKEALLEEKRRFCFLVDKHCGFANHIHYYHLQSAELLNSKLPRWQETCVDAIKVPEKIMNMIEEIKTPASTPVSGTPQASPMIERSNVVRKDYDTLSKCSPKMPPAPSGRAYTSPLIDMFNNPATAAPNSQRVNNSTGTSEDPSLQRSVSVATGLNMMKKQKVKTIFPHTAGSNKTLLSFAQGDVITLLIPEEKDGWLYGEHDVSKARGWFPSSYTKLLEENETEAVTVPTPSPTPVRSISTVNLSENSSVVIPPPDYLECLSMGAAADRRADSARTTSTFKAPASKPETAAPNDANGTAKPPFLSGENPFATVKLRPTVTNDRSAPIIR

Variants of B1 are the subject of this test. As to conditions: with bi2l1_human BAIAP2L1, Q9UHR4.
Take N299A;W300A;P301A: the “effect of a mutation on the interaction” value is listed as “decreasing interaction”.
As for N299P;W300P, the entry is “decreasing interaction”.
As for N299G;W300G;P301G, the entry is “decreasing interaction”.
